Data published in patent US20210046181A1 (VALITOR, published 2021).

What was measured:
IL-1β = assay: BLI (ForteBio Octet Red), target adsorbed on the probe
mouse TNFα [1] = target: T1, mouse TNFα (mouse, UniProt P06804 80-235); assay: as above
T1 construct: the target is inferred from the name of the VHH
T1 sequence (looked up): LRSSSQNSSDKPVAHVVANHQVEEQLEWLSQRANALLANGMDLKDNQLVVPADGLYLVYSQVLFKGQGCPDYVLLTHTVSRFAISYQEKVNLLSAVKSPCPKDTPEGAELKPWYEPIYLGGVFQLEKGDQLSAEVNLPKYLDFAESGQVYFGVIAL

mouse TNFα [2] = target: T1, mouse TNFα; assay: cell-based or functional assay

Sequence of IL-1β (P01584 117-269): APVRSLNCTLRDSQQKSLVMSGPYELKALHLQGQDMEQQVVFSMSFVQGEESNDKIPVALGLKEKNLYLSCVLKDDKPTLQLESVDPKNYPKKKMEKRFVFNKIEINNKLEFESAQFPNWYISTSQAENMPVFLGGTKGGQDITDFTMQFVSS

B1: (anti-IL-1β scFv antibody-EMCH)15-HyA (2000 kDa) (scFv)
scFv: SNAEIVMTQSPSTLSASVGDRVIITCQASQSIDNWLSWYQQKPGKAPKLLIYRASTLASGVPSRFSGSGSGAEFTLTISSLQPDDFATYYCQNTGGGVSIAFGQGTKLTVLGGGGGSGGGGSGGGGSGGGGSEVQLVESGGGLVQPGGSLRLSCTASGFSLSSAAMAWVRQAPGKGLEWVGIIYDSASTYYASWAKGRFTISRDTSKNTVYLQMNSLRAEDTAVYYCARERAIFSGDFVLWGQGTLVTVSSSPSTPPTPSPSTPPGGC
modifications: engineered cysteine thiol linked through EMCH (maleimide) to hyaluronic acid (HyA, 2000 kDa)
IL-1β
  Kd: 0.84 nM

B2: (anti-IL-1β scFv antibody-EMCH)-CMC (700 kDa) (scFv)
scFv: B1 scFv
modifications: engineered cysteine thiol linked through EMCH (maleimide) to carboxymethyl cellulose (CMC, 700 kDa)
IL-1β
  Kd: 0.02 nM

B3: (anti-(mouse)TNFα VHH antibody-EMCH)273-HyA (2000 kDa) (VHH)
VHH: QVQLQDSGGGLVQAGGSLRLSCAASGGTFSSIIMAWFRQAPGKEREFVGAVSWSGGTTVYADSVLGRFEISRDSARKSVYLQMNSLKPEDTAVYYCAARPYQKYNWASASYNVWGQGTQVTVSS
modifications: engineered cysteine thiol linked through EMCH (maleimide) to hyaluronic acid (HyA, 2000 kDa)
notes: Multivalent peptide-polymer conjugate: about 273 VHH per HyA chain
Mouse TNFα [1]
  Kd: 0.17 nM
Mouse TNFα [2]
  IC50 (nM), Bioactivity Data; assay not given, the filing describes IC50 from the L929 fibroblast cell survival assay with TNFα: 120 nM
